Laboratory results published in patent publication US20180296707A1, “PHARMACEUTICAL FORMULATION AND METHOD OF PREPARING THE SAME” (SeeCure Taiwan Co., Ltd., priority 2017, published 2018).

Legend:
[1] = target: SSTR2 (Homo sapiens, UniProt P30874); conditions: background statement; cited from earlier work
[2] = target: SSTR3 (Homo sapiens, UniProt P32745); conditions: background statement; cited from earlier work
[3] = tested on: human pancreatic tumor; test: PET/CT imaging, tumor/muscle count density in pancreatic tumor models; conditions: human pancreatic-tumor bearing mouse, FIG. 12
Procedure: (§1) Briefly, athymic nude mice (15±2 g) bearing human tumors (at hind legs) derived from the colorectal and pancreatic cell line were used for imaging studies. Studies were performed 21 to 28 days after inoculation when tumors were approximately 0.5 cm in diameter. Scintigraphic images were obtained either from a micro-PET (Inveon) embedded in the gantries coordinate PET/CT data acquisition. […] The static images were obtained at 0.5, 1 and 2 hrs.

[4] = tested on: human colorectal tumor; test: PET/CT imaging, tumor/muscle count density in colorectal tumor models; type: in vivo, athymic nude mice; conditions: 500 μCi/mouse iv;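 note: human colorectal tumors grown on the hind legs of athymic nude mice, imaged by micro-PET/CT 21 to 28 days post inoculation, once tumors reached roughly 0.5 cm across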
Procedure: as §1

[5] = as above; type: in vivo, athymic nude mice; conditions: athymic nude, tumor/muscle, 500 uCi/mouse, total radioactivity, 500 μCi/mouse iv
Procedure: as §1

SSTR3, sequence (P32745 whole entry, species assumed): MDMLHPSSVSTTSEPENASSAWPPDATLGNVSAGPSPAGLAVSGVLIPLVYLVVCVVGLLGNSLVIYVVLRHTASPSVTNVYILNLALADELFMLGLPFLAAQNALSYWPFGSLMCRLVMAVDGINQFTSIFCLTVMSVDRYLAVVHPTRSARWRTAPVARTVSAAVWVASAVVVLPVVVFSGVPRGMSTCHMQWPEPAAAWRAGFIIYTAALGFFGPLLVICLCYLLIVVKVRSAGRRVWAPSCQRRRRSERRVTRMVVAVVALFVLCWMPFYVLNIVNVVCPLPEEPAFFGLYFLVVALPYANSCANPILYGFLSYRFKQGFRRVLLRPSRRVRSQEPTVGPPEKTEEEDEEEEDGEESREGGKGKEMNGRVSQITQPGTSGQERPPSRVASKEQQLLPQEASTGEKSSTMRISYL
SSTR2, sequence (P30874 whole entry, species assumed): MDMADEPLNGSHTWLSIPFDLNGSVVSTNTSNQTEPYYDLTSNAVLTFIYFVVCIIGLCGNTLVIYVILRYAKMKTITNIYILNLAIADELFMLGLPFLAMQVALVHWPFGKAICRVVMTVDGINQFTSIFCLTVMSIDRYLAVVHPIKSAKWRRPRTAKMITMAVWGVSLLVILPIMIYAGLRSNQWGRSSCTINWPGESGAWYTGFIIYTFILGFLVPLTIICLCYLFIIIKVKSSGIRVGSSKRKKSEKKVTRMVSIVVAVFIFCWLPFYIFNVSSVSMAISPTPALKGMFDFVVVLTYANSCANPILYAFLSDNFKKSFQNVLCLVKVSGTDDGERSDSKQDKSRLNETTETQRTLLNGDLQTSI

Question: With `C[C@@H](O)[C@@H]1NC(=O)[C@H](CCCCN)NC(=O)[C@@H](Cc2c[nH]c3ccccc23)NC(=O)[C@H](Cc2ccccc2)NC(=O)[C@@H](NC(=O)[C@H](N)Cc2ccccc2)CSSC[C@@H](C(=O)N[C@H](CO)[C@@H](C)O)NC1=O` [octreotide] as the compound, how does the “affinity to SSTR2 subtype” value [1] read?
Answer: high affinity

Question: What about the “affinity to SSTR3 subtype” value [2] of the same compound?
Answer: low affinity

Question: With `O=C([O-])CN1CCN(CC(=O)[O-])CCN(CC(=O)O)CCN(CC(=O)[O-])CC1.[68Ga+3]` [^68Ga-DOTA] as the compound, how does the “bladder uptake (PET/CT)” value [3] read?
Answer: high bladder uptake

Question: What about the “clearance (PET/CT)” value [3] of the same compound?
Answer: fast clearance

Question: And the “visualization of neuroendocrine tumors by PET/CT” value [3]?
Answer: could not be used to visualize neuroendocrine tumors

Question: What does the source list for `C[C@@H](O)[C@H](NC(=O)[C@@H]1CSSC[C@H](NC(=O)[C@@H](Cc2ccccc2)NC(=O)CN2CCN(CC(=O)O)CCN(CC(=O)O)CCN(CC(=O)O)CC2)C(=O)N[C@@H](Cc2ccc(O)cc2)C(=O)N[C@H](Cc2c[nH]c3ccccc23)C(=O)N[C@@H](CCCCN)C(=O)N[C@@H]([C@@H](C)O)C(=O)N1)C(=O)O` [^68Ga-DOTATATE, metal not drawn]?
Answer: Muscle count density ([4]; frame 0, midpoint 15 sec): 0.242; Tumor count density ([4]; frame 0, midpoint 15 sec): 0.290; Muscle count density ([4]; frame 1, midpoint 30 sec): 0.273; Tumor count density ([4]; frame 1, midpoint 30 sec): 0.286; Muscle count density ([4]; frame 2, midpoint 45 sec): 0.237; Tumor count density ([4]; frame 2, midpoint 45 sec): 0.298; Muscle count density ([4]; frame 3, midpoint 60 sec): 0.255; Tumor count density ([4]; frame 3, midpoint 60 sec): 0.324; Muscle count density ([4]; frame 4, midpoint 90 sec): 0.238; Tumor count density ([4]; frame 4, midpoint 90 sec): 0.296; Muscle count density ([4]; frame 5, midpoint 120 sec): 0.227; Tumor count density ([4]; frame 5, midpoint 120 sec): 0.296; Muscle count density ([4]; frame 6, midpoint 180 sec): 0.235; Tumor count density ([4]; frame 6, midpoint 180 sec): 0.284; Muscle count density ([4]; frame 7, midpoint 240 sec): 0.233; Tumor count density ([4]; frame 7, midpoint 240 sec): 0.303; Muscle count density ([4]; frame 8, midpoint 300 sec): 0.231; Tumor count density ([4]; frame 8, midpoint 300 sec): 0.300; Muscle count density ([4]; frame 9, midpoint 360 sec): 0.232; Tumor count density ([4]; frame 9, midpoint 360 sec): 0.286; Muscle count density ([4]; frame 10, midpoint 540 sec): 0.230; Tumor count density ([4]; frame 10, midpoint 540 sec): 0.287; Muscle count density ([4]; frame 11, midpoint 720 sec): 0.231; Tumor count density ([4]; frame 11, midpoint 720 sec): 0.300; Muscle count density ([4]; frame 12, midpoint 900 sec): 0.227; Tumor count density ([4]; frame 12, midpoint 900 sec): 0.294; Muscle count density ([4]; frame 13, midpoint 1200 sec): 0.206; Tumor count density ([4]; frame 13, midpoint 1200 sec): 0.292; Muscle count density ([4]; frame 14, midpoint 1500 sec): 0.200; Tumor count density ([4]; frame 14, midpoint 1500 sec): 0.288; Muscle count density ([4]; frame 15, midpoint 1800 sec): 0.180; Tumor count density ([4]; frame 15, midpoint 1800 sec): 0.279; tissue to tissue ratio ([5]; colorectal tumor-bearing mice, dynamic images 0 to 30 minutes, read-out: average tumor/muscle (T/M) count density ratios, approximate range): 1.2; tissue to tissue ratio at 15 s ([5]; frame 0, midpoint 15 sec): 1.2; tissue to tissue ratio at 0.5 min ([5]; frame 1, midpoint 30 sec): 1.05; tissue to tissue ratio at 45 s ([5]; frame 2, midpoint 45 sec): 1.26; tissue to tissue ratio at 1 min ([5]; frame 3, midpoint 60 sec): 1.27; tissue to tissue ratio at 0.025 h ([5]; frame 4, midpoint 90 sec): 1.24; tissue to tissue ratio at 2 min ([5]; frame 5, midpoint 120 sec): 1.3; tissue to tissue ratio at 0.05 h ([5]; frame 6, midpoint 180 sec): 1.21; tissue to tissue ratio at 4 min ([5]; frame 7, midpoint 240 sec): 1.3; tissue to tissue ratio at 5 min ([5]; frame 8, midpoint 300 sec): 1.3; tissue to tissue ratio at 0.1 h ([5]; frame 9, midpoint 360 sec): 1.23; tissue to tissue ratio at 0.15 h ([5]; frame 10, midpoint 540 sec): 1.25; tissue to tissue ratio at 0.2 h ([5]; frame 11, midpoint 720 sec): 1.3; tissue to tissue ratio at 0.25 h ([5]; frame 12, midpoint 900 sec): 1.29; tissue to tissue ratio at 20 min ([5]; frame 13, midpoint 1200 sec): 1.42; tissue to tissue ratio at 25 min ([5]; frame 14, midpoint 1500 sec): 1.44; tissue to tissue ratio at 0.5 h ([5]; frame 15, midpoint 1800 sec): 1.55
